# Assay results reported in patent US20250289893A1 (OXFORD UNIVERSITY INNOVATION, published 2025).
# T1: Cynomolgus monkey CD1a protein (Cynomolgus monkey)
# T1 chain: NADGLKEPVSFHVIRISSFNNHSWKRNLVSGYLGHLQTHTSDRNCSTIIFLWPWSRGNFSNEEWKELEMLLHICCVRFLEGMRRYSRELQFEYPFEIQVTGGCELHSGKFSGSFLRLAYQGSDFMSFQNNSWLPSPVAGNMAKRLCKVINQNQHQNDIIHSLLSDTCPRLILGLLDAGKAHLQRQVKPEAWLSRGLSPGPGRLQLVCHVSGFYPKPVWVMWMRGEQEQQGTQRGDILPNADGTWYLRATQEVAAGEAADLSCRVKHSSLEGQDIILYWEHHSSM
# B1: 16 (VR11834) (antibody, V domains shown)
# VH: EVQLVESGGGLVKPGGSLKLSCAASGFTFSNYAMSWVRQTPEKRLEWVAAINSNGGSAYYPDTVKDRFTISRDNAKNTLYLQMSSLRSEDTALYYCARRFYYDYGWFAYWGQGTLVTVSS
# VL: DIVLTQSPASLSASVGETVTITCRASENIDSYLAWYQQKQGKSPQLLVYAATLLADGVPSRFSGSGSGTQYSLKINSLQSEDVARYYCQHYYSSPWTFGGGTKLEIK
# notes: also called OX16; antibody 16
# Legend:
# [1] = target: Chinese variant CD1a protein (human) (UniProt P06126); assay: ELISA, 0.01 µg/ml antibody
# [2] = target: Chinese variant CD1a protein (human) (UniProt P06126); assay: ELISA, 1 µg/ml antibody
# [3] = target: T2, human CD1a expressed on cells (human, UniProt P06126 17-327; P61769 21-119); assay: flow cytometry, MOLT4 cells, 10 µg/ml antibody
# T2 construct: also called HEK - CD1a; C1R - CD1a
# Description: (§1) CD1a-specific antibodies were identified by flow cytometry. Binding to proteins expressed on HEK, C1R and MOLT4 cell lines was assessed. […] The C1R-CD1a, C1R-empty vector and MOLT4 cell lines were washed in 1×PBS on the day required. All cell lines were counted and resuspended in 1×PBS and then stained for 30 minutes at 37° C. using the DiI or DiO cellular stains (Invitrogen). Cells were washed with flow cytometry buffer (1% bovine serum albumin, 2 mM EDTA and 0.1% sodium azide in PBS) before mixing 2 DiI-stained and DiO-stained populations together. The cells (20 μl/well) were then added to dilutions of antibody sample (B cell culture supernatant, TAP supernatant, clone supernatant, purified antibody solution) (20 μl/well) and incubated for 1 hour at 4° C. in a flow cytometry assay plate, before being washed with flow cytometry buffer. 10 μl/well of Alexafluor647-conjugated goat anti-species IgG Fc-specific F(ab′)2 fragment (Jackson ImmunoResearch), diluted 1:2500 in flow cytometry buffer, was added and incubated at 4° C. for 30 minutes, followed by washing with wash buffer. The fluorescence intensity was then measured on an iQue screener PLUS.
# (§2) Binding was quantified as fold change in fluorescence intensity geomean over background assessed by flow cytometry.
# [4] = target: T3, human CD1a protein (pool B) (human, UniProt P06126 18-295, limits assumed); assay: SPR (Biacore T200), antibody captured, human CD1a titrated, heterogeneous ligand model (ka 2)
# T3 construct: Recombinant protein of the ELISA (coated) and the Biacore T200 titration; whole entry named; also called human CD1a pool B; full length CD1a
# Description: (§3) The affinity of the purified antibodies to human CD1a was assessed using a Biacore T200 instrument (GE Healthcare) by capturing the antibody to an immobilized anti-species IgG F(ab′)2 followed by titration of human CD1a. Affinipure Goat anti-species IgG-F(ab′)2 fragment specific (Jackson ImmunoResearch) was immobilized on a CM5 Sensor Chip (GE Healthcare) via amine coupling chemistry to a capture level of ˜5000 response units (RUs). HBS-EP+ buffer (10 mM HEPES pH 7.4, 0.15 M NaCl, 3 mM EDTA, 0.05% Surfactant P20, GE Healthcare) was used as the running buffer with a flow rate of 10 μL/min. A 10 μL injection of test antibody at 0.5 μg/mL was used for capture by the immobilized Goat Anti-species Fab.
# (§4) The surface was regenerated between cycles by injection of 2×10 μL of 40 mM HCl, interspersed by a 10 μL injection of 5 mM NaOH at flowrate of 10 μL/min. Background subtraction binding curves were analyzed using the Biacore T200 evaluation software following standard procedures. Kinetic parameters were determined from the fitting algorithm. This assay was performed at the clone supernatant and purified antibody stage.
# (§5) Affinity was required to be <100 nM to be considered for progression.
# [5] = target: T4, Cynomolgus monkey CD1a expressed on HEK-293 cells (Cynomolgus monkey, UniProt A0A2K5VQ68 17-326); assay: flow cytometry, HEK-293 cells, 1 µg/ml antibody
# Description: (§6) Binding to proteins expressed on HEK, C1R and MOLT4 cell lines was assessed. […] The C1R-CD1a, C1R-empty vector and MOLT4 cell lines were washed in 1×PBS on the day required. All cell lines were counted and resuspended in 1×PBS and then stained for 30 minutes at 37° C. using the DiI or DiO cellular stains (Invitrogen). Cells were washed with flow cytometry buffer (1% bovine serum albumin, 2 mM EDTA and 0.1% sodium azide in PBS) before mixing 2 DiI-stained and DiO-stained populations together. The cells (20 μl/well) were then added to dilutions of antibody sample (B cell culture supernatant, TAP supernatant, clone supernatant, purified antibody solution) (20 μl/well) and incubated for 1 hour at 4° C. in a flow cytometry assay plate, before being washed with flow cytometry buffer. 10 μl/well of Alexafluor647-conjugated goat anti-species IgG Fc-specific F(ab′)2 fragment (Jackson ImmunoResearch), diluted 1:2500 in flow cytometry buffer, was added and incubated at 4° C. for 30 minutes, followed by washing with wash buffer. The fluorescence intensity was then measured on an iQue screener PLUS.
# as §2
# [6] = target: T2, human CD1a expressed on cells; assay: flow cytometry, HEK-293 cells, 10 µg/ml antibody
# Description: as §6
# (§7) HEK-293 cells were transiently transfected with human CD1a, CD1b, CD1c or CD1d and co-transfected with human β2M.
# [7] = target: T5, human CD1b expressed on HEK-293 cells (human, UniProt P29016 18-333; P61769 21-119); assay: flow cytometry, HEK-293 cells
# T5 construct: also called HEK - CD1b
# Description: as §1
# [8] = target: T6, human CD1c expressed on HEK-293 cells (human, UniProt P29017 18-333; P61769 21-119); assay: flow cytometry, HEK-293 cells
# T6 construct: also called HEK - CD1c
# Description: as §1
# [9] = target: T7, human CD1d expressed on HEK-293 cells (human, UniProt P15813 20-335; P61769 21-119); assay: flow cytometry, HEK-293 cells
# T7 construct: also called HEK - CD1d
# Description: as §1
# [10] = target: T2, human CD1a expressed on cells; assay: flow cytometry, C1R cells, 1 µg/ml antibody
# Description: as §6, §2
# [11] = target: chimeric CD1a pool B protein [human CD1a lipid binding domain, mouse CD1d Ig domain] (human; mouse, UniProt P06126 18-201; P11609 205-297, limits assumed); assay: ELISA, 0.1 µg/ml antibody
# Description: (§8) CD1a-specific antibodies were identified by ELISA. […] 20 μl/well of peroxidase-conjugated goat anti-species IgG Fc-specific F(ab′)2 fragment (Jackson ImmunoResearch), diluted 1:5000 in block buffer was added and incubated at room temperature for 1 hour, followed by washing with wash buffer.
# The antibodies were titrated through a dilution series and compared to a control rabbit IgG antibody. […] Data shown for purified antibodies.
# [12] = target: T3, human CD1a protein (pool B); assay: SPR (Biacore T200), antibody captured, human CD1a titrated, heterogeneous ligand model (KD)
# Description: as §3, §5
# [13] = target: T3, human CD1a protein (pool B); assay: SPR (Biacore T200), antibody captured, human CD1a titrated, heterogeneous ligand model (ka)
# Description: as §3, §5
# [14] = target: T1, Cynomolgus monkey CD1a protein; assay: ELISA, 0.1 µg/ml antibody
# [15] = target: T4, Cynomolgus monkey CD1a expressed on …; assay: flow cytometry, HEK-293 cells, 0.1 µg/ml antibody
# Description: as §6, §2
# [16] = target: T1, Cynomolgus monkey CD1a protein; assay: ELISA, 10 µg/ml antibody
# [17] = target: T4, Cynomolgus monkey CD1a expressed on …; assay: flow cytometry, HEK-293 cells, 0.01 µg/ml antibody
# Description: as §6, §2
# [18] = target: Chinese variant CD1a protein (human) (UniProt P06126); assay: ELISA, 10 µg/ml antibody
# [19] = target: T3, human CD1a protein (pool B); assay: SPR (Biacore T200), antibody captured, human CD1a titrated, heterogeneous ligand model (kd)
# Description: as §3, §4, §5
# [20] = target: T2, human CD1a expressed on cells; assay: flow cytometry, MOLT4 cells, 1 µg/ml antibody
# Description: as §1, §2
# [21] = target: T3, human CD1a protein (pool B); assay: ELISA, 0.1 µg/ml antibody
# Description: as §8
# The antibodies were titrated through a dilution series and compared to a control rabbit IgG antibody.
# [22] = target: T4, Cynomolgus monkey CD1a expressed on …; assay: flow cytometry, HEK-293 cells, 10 µg/ml antibody
# Description: as §6, §2
# [23] = target: T1, Cynomolgus monkey CD1a protein; assay: ELISA, 1 µg/ml antibody
# [24] = target: T2, human CD1a expressed on cells; assay: flow cytometry, HEK-293 cells, 1 µg/ml antibody
# Description: as §6, §7
# [25] = target: T2, human CD1a expressed on cells; assay: flow cytometry, HEK-293 cells, 0.1 µg/ml antibody
# Description: as §6, §7
# [26] = target: T2, human CD1a expressed on cells; assay: flow cytometry, C1R cells, 0.1 µg/ml antibody
# Description: as §6, §2
# [27] = target: Chinese variant CD1a protein (human) (UniProt P06126); assay: ELISA, 0.1 µg/ml antibody
# [28] = target: T3, human CD1a protein (pool B); assay: SPR (Biacore T200), antibody captured, human CD1a titrated, heterogeneous ligand model (KD2)
# Description: as §3, §4, §5
# [29] = target: T1, Cynomolgus monkey CD1a protein; assay: ELISA, 0.01 µg/ml antibody
# [30] = target: T2, human CD1a expressed on cells; assay: flow cytometry, MOLT4 cells, 0.1 µg/ml antibody
# Description: as §1, §2
# [31] = target: T3, human CD1a protein (pool B); assay: SPR (Biacore T200), antibody captured, human CD1a titrated, heterogeneous ligand model (kd 2)
# Description: as §3, §4, §5
# [32] = target: T2, human CD1a expressed on cells; assay: flow cytometry, C1R cells, 10 µg/ml antibody
# Description: as §6, §2
# T3 sequence (P06126 18-295 limits assumed): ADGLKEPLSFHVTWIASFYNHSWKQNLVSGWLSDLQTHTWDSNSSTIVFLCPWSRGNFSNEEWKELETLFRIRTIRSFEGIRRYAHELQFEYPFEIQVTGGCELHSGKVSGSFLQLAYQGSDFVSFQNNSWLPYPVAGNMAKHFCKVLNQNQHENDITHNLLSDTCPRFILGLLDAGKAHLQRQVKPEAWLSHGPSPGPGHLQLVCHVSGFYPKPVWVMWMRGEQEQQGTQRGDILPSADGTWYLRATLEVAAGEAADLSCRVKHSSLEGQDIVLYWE
# Sequence of Chinese variant CD1a protein (human) (P06126 18-295, stated change not applied): as the sequence (P06126 18-295 limits assumed) above
# T4 sequence (A0A2K5VQ68 entry or part of it): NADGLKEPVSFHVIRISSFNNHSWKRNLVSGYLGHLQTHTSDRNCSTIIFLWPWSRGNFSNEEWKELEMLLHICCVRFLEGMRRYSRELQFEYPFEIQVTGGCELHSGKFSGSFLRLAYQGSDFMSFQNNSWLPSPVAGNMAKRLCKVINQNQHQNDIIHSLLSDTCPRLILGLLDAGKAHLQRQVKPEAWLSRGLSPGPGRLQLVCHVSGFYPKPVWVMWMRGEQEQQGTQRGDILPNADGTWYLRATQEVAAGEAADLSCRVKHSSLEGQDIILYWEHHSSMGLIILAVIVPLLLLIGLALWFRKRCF
# Sequence of chimeric CD1a pool B protein [human CD1a lipid binding domain, mouse CD1d Ig domain] (P06126 other isoform, or with tags, fused parts or gaps mutant limits assumed): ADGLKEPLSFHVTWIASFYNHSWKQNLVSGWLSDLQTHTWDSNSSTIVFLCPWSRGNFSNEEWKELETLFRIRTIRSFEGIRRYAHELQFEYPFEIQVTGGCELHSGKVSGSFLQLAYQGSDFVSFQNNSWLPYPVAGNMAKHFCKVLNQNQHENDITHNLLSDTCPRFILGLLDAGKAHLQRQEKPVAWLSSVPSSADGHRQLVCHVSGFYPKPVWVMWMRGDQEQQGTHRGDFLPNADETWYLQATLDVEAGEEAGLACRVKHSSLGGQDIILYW
binder,measurement,setting,value
B1,Optical Density (OD),[1],1.01 OD
same,Optical Density (OD),[2],1.35 OD
same,Fluorescence Intensity Geomean (normalized to background),[3],7.5 fold over background
same,kon,[4],514000 M⁻¹ s⁻¹
same,Fluorescence Intensity Geomean (normalized to background),[5],7.6 fold over background
same,Fluorescence Intensity Geomean (normalized to background),[6],10.2 fold over background
same,binding result,[7],no binding
same,binding result,[8],no binding
same,binding result,[9],no binding
same,Fluorescence Intensity Geomean (normalized to background),[10],10.1 fold over background
same,Optical Density (OD),[11],0.7 OD
same,Kd,[12],0.392 nM
same,kon,[13],1.86e+06 M⁻¹ s⁻¹
same,Optical Density (OD),[14],0.57 OD
same,Fluorescence Intensity Geomean (normalized to background),[15],8.5 fold over background
same,Optical Density (OD),[16],0.49 OD
same,Fluorescence Intensity Geomean (normalized to background),[17],6.9 fold over background
same,Optical Density (OD),[18],1.44 OD
same,koff,[19],0.000729 s⁻¹
same,Fluorescence Intensity Geomean (normalized to background),[20],15 fold over background
same,Optical Density (OD),[21],0.59 OD
same,Fluorescence Intensity Geomean (normalized to background),[22],8.8 fold over background
same,Optical Density (OD),[23],0.58 OD
same,Fluorescence Intensity Geomean (normalized to background),[24],19.6 fold over background
same,Fluorescence Intensity Geomean (normalized to background),[25],12.9 fold over background
same,Fluorescence Intensity Geomean (normalized to background),[26],10.2 fold over background
same,Optical Density (OD),[27],1.3 OD
same,Kd,[28],12.8 nM
same,Optical Density (OD),[29],0.46 OD
same,Fluorescence Intensity Geomean (normalized to background),[30],14.4 fold over background
same,koff,[31],0.00658 s⁻¹
same,Fluorescence Intensity Geomean (normalized to background),[32],7 fold over background
